The assay has as its target 5c.c7 TCR on 5c.c7 αβ TCR-transgenic CD4+ T-cells (mouse). As to the kind of experiment: flow cytometry on cells; time curve: T-cells labeled with AF555-H57-scFV (1800 ng per 1 Mio T-cells), washed, kept on ice, at room temperature or at 37 °C; samples taken after 0, 5, 10, 30, 60 and 120 min. (Flow cytometry measures light scatter and fluorescence of single cells or particles in a stream.)

Where only a bound is given, the exact number is not on record here.

As for “fluorescently labeled H57 scFV (J1), TCR β-reactive H57 single-chain fragment”, the time after which 50% of receptor:ligand bonds are still intact, room temperature was > 3 h.

Values taken from PMC12354883.
